# Experiments:
# Assay in all cases: cell-based or functional assay
# CD80 (mouse) = CD80 (mouse) (UniProt Q00609)
# CD54 (mouse) = CD54 (mouse) (UniProt P13597)
# [1] = target: H-2K^b/OVAI peptide complex (mouse)
# Sequence of UniProt P13597 (P13597 28-537): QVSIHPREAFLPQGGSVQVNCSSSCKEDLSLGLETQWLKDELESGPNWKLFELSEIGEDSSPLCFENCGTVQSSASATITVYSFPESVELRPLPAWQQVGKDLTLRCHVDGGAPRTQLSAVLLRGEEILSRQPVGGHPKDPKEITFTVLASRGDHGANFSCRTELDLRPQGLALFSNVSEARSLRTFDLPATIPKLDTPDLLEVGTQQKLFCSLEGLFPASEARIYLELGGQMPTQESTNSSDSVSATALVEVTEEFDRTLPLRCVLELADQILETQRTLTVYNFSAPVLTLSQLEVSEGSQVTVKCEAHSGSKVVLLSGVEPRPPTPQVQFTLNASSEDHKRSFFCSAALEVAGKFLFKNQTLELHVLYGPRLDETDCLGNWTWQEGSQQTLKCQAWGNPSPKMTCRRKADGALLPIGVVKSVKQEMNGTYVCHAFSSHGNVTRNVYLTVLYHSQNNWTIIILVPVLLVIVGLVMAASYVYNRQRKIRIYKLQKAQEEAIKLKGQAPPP
# Sequence of UniProt Q00609 (Q00609 38-306): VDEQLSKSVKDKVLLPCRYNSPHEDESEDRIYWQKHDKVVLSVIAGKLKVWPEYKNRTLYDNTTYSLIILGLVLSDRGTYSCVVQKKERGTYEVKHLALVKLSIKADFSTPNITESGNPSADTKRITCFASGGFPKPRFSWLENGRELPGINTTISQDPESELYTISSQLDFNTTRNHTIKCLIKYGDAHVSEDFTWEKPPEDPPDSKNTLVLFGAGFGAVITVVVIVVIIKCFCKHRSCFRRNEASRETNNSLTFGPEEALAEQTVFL
substance,measurement,setting,value
CD28 (from UniProt P31041 20-218) (receptor),inhibition of Th-APC-stimulated OT I CD8^+ T cell proliferative response by CTLA-4/Ig fusion protein (15 µg/ml),CD80 (mouse),58%
same,inhibition of aTEXO-stimulated OT I CD8^+ T cell proliferative response by CTLA-4/Ig (10 µg/ml),CD80 (mouse),49%
same,inhibition of mDCEXO-stimulated OT I CD8^+ T cell proliferative response by CTLA-4/Ig (10 µg/ml),CD80 (mouse),56%
LFA-1 (from UniProt P24063 24-1162; P11835 24-771) (receptor),inhibition of Th-APC-stimulated OT I CD8^+ T cell proliferative response by anti-LFA-1 Ab (15 µg/ml),CD54 (mouse),50%
same,inhibition of aTEXO-stimulated OT I CD8^+ T cell proliferative response by anti-LFA-1 Ab (10 µg/ml),CD54 (mouse),52%
same,inhibition of mDCEXO-stimulated OT I CD8^+ T cell proliferative response by anti-LFA-1 Ab (10 µg/ml),CD54 (mouse),49%
OVA-specific TCR of OT I CD8^+ T cells,inhibition of Th-APC-stimulated OT I CD8^+ T cell proliferative response by anti-MHC class I Ab (15 µg/ml),[1],38%
same,inhibition of aTEXO-stimulated OT I CD8^+ T cell proliferative response by anti-H-2K^b Ab (10 µg/ml),[1],49%
same,inhibition of mDCEXO-stimulated OT I CD8^+ T cell proliferative response by anti-MHC class I Ab (10 µg/ml),[1],62%
